This sample holds only a part of the variants without activity.
B1: TPR 5TU (parent)
chain: GGAUCUUCUCGAUCUAACAAAAAAGACAAAUCUGCCACAAAGCUUGAGAGCAUCUUCGGAUGCAGAGGCGGCAGCCUUCGGUGGCGCGAUAGCGCCAACGUUCUCAACUAUGACACGCAAAACGCGUGCUCCGUUGAAUGGAGUUUAUCAUG

Variants of: B1
Test: polymerase ribozyme fitness, log enrichment relative to wild type (log ratio); higher = more active; in vitro selection for triplet polymerase activity
How it was run: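 One round of in vitro selection, in triplicate, was applied to PCR-built, transcribed mutant libraries of each subunit of a heterodimeric triplet polymerase ribozyme. The steps were annealing with a biotinylated primer, partner subunit and triplets, incubation frozen at −7 °C, gel excision of extended constructs, streptavidin-bead capture and RT-PCR. Fitness is the logarithm, base 2, of genotype enrichment over wild-type enrichment from inverse-variance-weighted replicate averages of Illumina-sequenced inputs and outputs, keeping genotypes with ≥10 input reads and ≥1 read per output.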

Variant | polymerase ribozyme fitness (log ratio)
A37U A41U A89G A115C A150U | ≤ -4.2
C36U U61G U82G C85U | -3.95
A37U C57U U101G | -0.608
C36A C43G | ≤ -4.2
C36U U82A G83A G84A G86U C93A C96U G117U | -3.98
A37U A49C A73U C75G A106C | ≤ -4.2
C35U G92A | -3.33
C38G U53A C85U U135A | -1.98
C36A A47U A52U U53A G59C A106G | ≤ -4.2
C36U A41C A47C A49U U55A C76G G94A A110C A113G U148G | -4.13
C36G C95A C103U U134A A138C | ≤ -4.2
C38U G67A C69G G94A | ≤ -4.2
A37G C54U C131U | -1.58
C36A C57A C99G A106U A115C | ≤ -4.2
A37G A52G C54A | -2.77
C36G A39U A40U A60G U104A G136U G141A | ≤ -4.2
C38G C54U C57U U146C | -1.16
C38A C95G G124C | -1.34
C38U A47C U102C A119U | -3.66
C38A C63A U90A G124U | ≤ -4.2
C38U C63U | 0.178
C36A C51G C85A | ≤ -4.2
A37G G141U U145G | -3.34
C35U G83C | -1.43

Variant | polymerase ribozyme fitness (log ratio)
C36U C85A C93A C114U | ≤ -4.2
A37U G81A U101C U111A U148G | ≤ -4.2
C38A C93A C131G A150U | ≤ -4.2
C36U A39C U82C G84U A119C A120U G133C A142U | ≤ -4.2
C36A G143U | -4.12
C36A A37C C43A U61A C85G | ≤ -4.2
C38G U53A G80A | -2.37
C36A A91U U145C | ≤ -4.2
C36U U146G | -3.6
A37C C99U C118U G143A U144A | -3.39
C38G U53A G70A G92A A107C | ≤ -4.2
A37U G59A | -0.836
C36G A66U G68C | ≤ -4.2
A37U U53A G68A A98U | ≤ -4.2
C38A G58C A98G A120C A121U | -0.687
A37C U45G A47C G59A C79G G81C U82C C95U | -4.18
A37U G80C A91C A150U | ≤ -4.2
C38U C85U | -0.884
C35U G70A G83A C116G A120C U134A | ≤ -4.2
C38U A91U | ≤ -4.2
A37U A39G A40U C93U C105G A110U A138U | ≤ -4.2
C38A U53A C95G A97G C116U | -2.22
C36A A91U C93G C118A A137U | ≤ -4.2
A39C A107C G141C | ≤ -4.2

Variant | polymerase ribozyme fitness (log ratio)
C35U G124A | -0.554
A37C G84U A120G | -2.19
A37G U56G | -1.45
C36G C54G A97G A98U C99U U104A C105G G117A G133C A150U | ≤ -4.2
C38U U61C C87U C96G G136U | ≤ -4.2
A37G C96G | -1.89
C36U U56A C79G U90G A106G C125U | ≤ -4.2
C38U G83U | -0.752
C38A C69G C93U U139A | ≤ -4.2
C35U U45A G59C C93G U144A | ≤ -4.2
C35U G50U C93G | -3.56
A37G A49U C51U C85U G92A C96A A97G U144A U146G | ≤ -4.2
C36U C54G U55C C75U C93U U146A | ≤ -4.2
C36U C85A | -2.75
C36U C85U | -1.83
A37C C51A G92U A106C | ≤ -4.2
C38G C69A C85A C96A A97C | -3.84
A37C A41C U53A U56G G59A C79U C87A A113U U134A | ≤ -4.2
C38U G68U G94A | ≤ -4.2
C36U G50C U53A G59C U78A | ≤ -4.2
A37C U44A C87A G94A U134G G141U | ≤ -4.2
C38G U55G C76A G141A | ≤ -4.2
A37U C96U | -1.52
C36U U53A U78A G83A U90C | ≤ -4.2

Variant | polymerase ribozyme fitness (log ratio)
C38A G80U C125U | -2.34
C38G C96G | -0.167
C38A G84A | -1.23
A37G U56G G58C G59A C93G C99G C108U | ≤ -4.2
C38G G58C G92U C105G U146C | -2.53
C38U G58C G65A A119G A147C | -2.82
C36A G48A G50A C69G G71A | ≤ -4.2
C38U G83A C99G | -3.15
C38A C85U C87U C116A | -0.329
A37G U56A G124C U134A U144A | ≤ -4.2
C38U G81U C108A U139G | ≤ -4.2
C35U G65C C76U C96A | ≤ -4.2
C38G G59C C63U G83U U90G G126U | ≤ -4.2
A37C G81C C85G C116G U144G | -4.04
C38U U56A C63A G117C A121U | 0.398
A37C C95G U134G | -3.26
C36A A49U C63U C79G C87U A106G G133A U144C | ≤ -4.2
C38U C54A C99U C132U | -2.38
C36U C108U | ≤ -4.2
A37C A41U G50C G81U C95U U111A C118G U127C A142C | ≤ -4.2
C35U C114U U139A | ≤ -4.2
C38G G92A | -4.14
C38U A41U C51U G84A G143A | -3.06
A39C C76A U101G C114U C125G U145G | -3.83

Variant | polymerase ribozyme fitness (log ratio)
C36U C69A A91U G94U C118U A121U | ≤ -4.2
C38G C54G C79U G117A | ≤ -4.2
C38U A73G G86A A91U A97G A115C | ≤ -4.2
A39C G42U C43A G92U U127A A150G | -4.19
C36A U82C C93U U135G | ≤ -4.2
C38U U90C U109C C116A C125G U146G | ≤ -4.2
C38U A97G | -0.0867
A37U C72A G126C | ≤ -4.2
A37U G65A A66U U77G G84A | ≤ -4.2
A37G A47C G83U | -4.12
A37C A49C U77A C87G A120G C131G | ≤ -4.2
A37U G71A C125A | ≤ -4.2
C36A C95U U104A C118G | ≤ -4.2
C36A C57A C79A G83U C93G C114U | ≤ -4.2
C36U A98U | -1.07
C38U C57U C93A A142U | -3.5
C36A U55A | -3.27
A37U C75A G84A C114U | ≤ -4.2
C38U A73U A107C C108U A115G | ≤ -4.2
C36U A49C C95A U145C | ≤ -4.2
C36A U56A U77G C87U U102A A119C | ≤ -4.2
C35U G50A U82C G141U | -4.1
C35U U53A G92U C103U C114G A115U A122U | ≤ -4.2
A39C C85U | -2.48

Variant | polymerase ribozyme fitness (log ratio)
A39C C54A G94A C123U U139A | ≤ -4.2
A37G C114U | -2.87
C38U C85U U127A | -3.87
C36U A60G C75G G92C | ≤ -4.2
C35U U45G G58A U61G C76U C85A C93G U104A A107C G152A | ≤ -4.2
C36U C114U C131A | ≤ -4.2
C36A U55A C57G C76A | -4.03
C38A G80A G94A A97G C99G C131U G133C | ≤ -4.2
C36G U45G C54U A89U G94U C125G G126A | ≤ -4.2
C38A U55A C76A | -1.15
A37G G136A U146C | -1.88
C36U G46A G70A G83C A120U G133C | -3.23
C38A G92C C93A C125G | ≤ -4.2
C35U C116U | 0.17
C36A U61G A64C C118A A147C | ≤ -4.2
C38A G70C G126C | -3.53
C38U G84U C123U | -0.916
C38U U55A C69G A115G A137G A142G | ≤ -4.2
C35U U56A | 0.225
C38U U44C C54U G94A C131U U139A U144C | ≤ -4.2
C38A A89U C93A G128A | ≤ -4.2
C36A G58A G67U G81C C103G A113U U134G G141U | ≤ -4.2
C38A A41C C54A G136U | -4.11
C38U G86A A89C C95G G112C | ≤ -4.2

Variant | polymerase ribozyme fitness (log ratio)
C36U G65C U102G G140C C149G | ≤ -4.2
C36U A66G C87U C93U U135A | ≤ -4.2
A37C C75U U77G A89C C93A A121C U148G U151G | ≤ -4.2
A37U A40G C76G C93A C103G | ≤ -4.2
C38A C57U A113U | -1.65
A37U C75G C87G C93U U101C | ≤ -4.2
A37G C57U G71U G92C C96U A97C A150C U151A | ≤ -4.2
C36U C76U G124U | -1.95
C38U C93A | -2.86
C36A U56G C103G A142G G143C | ≤ -4.2
C36A A64C G86C G133U | ≤ -4.2
C38U C76U U77G G92A C118A C129U | ≤ -4.2
C35U G59C C76G G124U | ≤ -4.2
C36A C85A C118U | -3.82
C38G C95A G141U | 1.02
C36U U56G U61A | ≤ -4.2
C36G G92C A121C C125A | ≤ -4.2
C38A A64C G88C | ≤ -4.2
A37U C95U A122G | -1.77
A37G U55A C85U C96U A107C C125A U144A A147U | ≤ -4.2
C36A A138U U145A A147C | -3.85
C35U U144A | -0.455
C35U U144G | 1.13

Source: the RNAGym collection of RNA variant scans (doi:10.1073/pnas.2313332121)
